Tested on: alpha-CTD (RNA polymerase alpha subunit C-terminal domain) (Bacillus licheniformis B1391)
Experiment: fluorescence polarization
Conditions: FP: 25 mM Tris-HCl, 3 mM NaCl, 3 mM MgCl2, 0.1 mM DTT, room temp 20 min, 100 nM probe, 30 ug protein in 100 uL; EMSA: 10 nM probe, 25 C 20 min; footprinting: …

Question: For “PtrxA-UP5-5D (five distal subsite repeats)”, which binding signal (% polarization change (DPC)) is on record?
Answer: 35

Question: With “PtrxA-UP5-5P (five proximal subsite repeats)” as the substance, how does the binding signal (% polarization change (DPC)) read?
Answer: 52
